# Measured values reported in US20080085261A1, “Vaccine Adjuvant” (priority 2004, published 2008).
# B1: daclizumab (antibody, chains of the INN, looked up, V domains shown)
# VH: QVQLVQSGAEVKKPGSSVKVSCKASGYTFTSYRMHWVRQAPGQGLEWIGYINPSTGYTEYNQKFKDKATITADESTNTAYMELSSLRSEDTAVYYCARGGGVFDYWGQGTLVTVSS
# VL: DIQMTQSPSTLSASVGDRVTITCSASSSISYMHWYQQKPGKAPKLLIYTTSNLASGVPARFSGSGSGTEFTLTISSLQPDDFATYYCHQRSTYPLTFGQGTKVEVK
# Test system: T regulatory phenotype cells
# Design: species or system non-human primate
# Conditions: in vivo
molecule,measurement,value
B1,time of maximum depletion in % and number of T regulatory phenotype cells,2 weeks
same,time until which depletion of T regulatory phenotype cells lasted,4 weeks
